In US20260184782A1 (TWIST BIOSCIENCE, published 2026):
Where a chain is given by its changes, count along the chain named.

T1: TIGIT (UniProt Q495A1 22-141, limits assumed)
T1 construct: construct not described; also called T cell immunoreceptor with Ig and ITIM domains
T1 sequence (looked up): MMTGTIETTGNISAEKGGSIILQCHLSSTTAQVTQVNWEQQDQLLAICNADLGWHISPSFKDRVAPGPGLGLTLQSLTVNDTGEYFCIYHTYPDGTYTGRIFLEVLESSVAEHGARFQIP

T2: TIGIT (UniProt Q495A1 22-141, limits assumed)
T2 construct: also called T cell immunoreceptor with Ig and ITIM domains; hTIGIT
T2 sequence (looked up): T1 sequence (looked up)

T3: human TIGIT-Fc (human, UniProt Q495A1 22-141, limits assumed)
T3 construct: not shown: Fc; not described
T3 sequence (looked up): T1 sequence (looked up)

B1: TIGIT-29-01 VHH-V5-His (VHH)
VHH: EVQLVESGGGLVQAGGSLRLSCAASGRTFSNYAMGWFRQAPGKEREFVAAITWSGTRTDYADSVKGRFTISADNAKNTVYLQMNSLKPEDTAVYYCAAAAWTIYEYDYWGQGTQVTVSS
notes: not shown: V5 and His tags
B2: TIGIT-29-07 VHH-V5-His (VHH)
VHH: B1 VHH with R27S, T28I, A50T, T52S, W53R, S54G, D59N, E105A, D107N
notes: not shown: V5 and His tags
B3: TIGIT-29-12 VHH-V5-His (VHH)
VHH: B1 VHH with R27S, N31S, D59N, E105T, Y108S
notes: not shown: V5 and His tags
B4: TIGIT-31-26 (VHH-V5-His) (VHH)
VHH: EVQLVESGGGLVQPGGSLRLSCAASGFTFDRSWMGWFRQAPGKERELVAAITSGGSTYYADSVKGRFTISADNSKNTAYLQMNSLKPEDTAVYYCAADVWYGSTWRNWGQGTLVTVSS
notes: not shown: V5-His tag
B5: TIGIT-31-32 (VHH-V5-His) (VHH)
VHH: B4 VHH with D30S, R31T, I51M, S56G, Y58N
notes: not shown: V5-His tag
B6: TIGIT-31-47 (VHH-V5-His) (VHH)
VHH: B4 VHH with D30S, R31G, S32N, L47W, A49V, A50G, T52S, S56T, T57P, Y58H
notes: not shown: V5-His tag
B7: TIGIT-31-35 (VHH-V5-His) (VHH)
VHH: B4 VHH with D30S, R31T, A50S, S56T, Y58N
notes: not shown: V5-His tag
B8: TIGIT-31-56 (VHH-V5-His) (VHH)
VHH: EVQLVESGGGLVQPGGSLRLSCAASGRIFRRNSMGWFRQAPGKEREFVAVITRSGGGEVTTYADSVKGRFTINADNSKNTAYLQMNSLKPEDTAVYYCAMSSVTRGSSDWGQGTLVTVST
notes: not shown: V5-His tag
B9: TIGIT-31-34 (VHH-V5-His) (VHH)
VHH: EVQLVESGGGLVQPGGSLRLSCAASGRSRYGMGWFRQAPGKEREFVSAISWSGISTYYADSVKGRFTISADNSKNTAYLQMNSLKPEDTAVYYCAATQWGSSGWKQARWYDWGQGTLVTVSS
notes: not shown: V5-His tag
B10: TIGIT-29-33 VHH-V5-His (VHH)
VHH: B1 VHH with R27F, T28I, N31T, F47L, A49S, W53R, T56I, R57T, D59Y
notes: not shown: V5 and His tags
B11: TIGIT-30-30 VHH-V5-His (VHH)
VHH: EVQLVESGGGLVQAGGSLRLSCAASGGTFSGRGMGWFRQAPGKEREWVSSVYIFGGSTYYADSVKGRFTISADNAKNTVYLQMNSLKPEDTAVYYCANSNKPKFDWGQGTQVTVSS
notes: not shown: V5 and His tags
B12: TIGIT-30-52 VHH-V5-His (VHH)
VHH: EVQLVESGGGLVQAGGSLRLSCAASGRTFSNYFMGWFRQAPGKERESVATVTWRDNITYYADSVKGRFTISADNAKNTVYLQMNSLKPEDTAVYYCASAGRWGQGTQVTVSS
notes: not shown: V5 and His tags
B13: TIGIT-29-06 VHH-V5-His (VHH)
VHH: EVQLVESGGGLVQAGGSLRLSCAASGGTFRSYVMGWFRQAPGKEREWVATINSSGSRTYYADSVKGRFTISADNAKNTVYLQMNSLKPEDTAVYYCAARPNYRDYEYWGQGTQVTVSS
notes: not shown: V5 and His tags
B14: TIGIT-SC151 (Fc fusion)
VHH: EVQLVESGGGLVQPGGSLRLSCAASGFPFSIYPMGWFRQAPGKEREFVAAISASGTLRAYADSVKGRFTISADNSKNTAYLQMNSLKPEDTAVYYCARSSSWVRIFDYWGQGTLVTVSS
notes: VHH-Fc
B15: TIGIT-SC31 (Fc fusion)
VHH: EVQLVESGGGLVQPGGSLRLSCAASGRAFESYAMGWFRQAPGKERELVATIGWSGTDYADSVKGRFTISADNSKNTAYLQMNSLKPEDTAVYYCAKGYTSGLSDWGQGTLVTVSS
notes: VHH-Fc
B16: TIGIT-SC57 (Fc fusion)
VHH: EVQLVESGGGLVQPGGSLRLSCAASGNTFSGGFMGWFRQAPGKEREWVASVLRGGYTWYADSVKGRFTISADNSKNTAYLQMNSLKPEDTAVYYCTTYRGWGQGTLVTVSS
notes: VHH-Fc
B17: TIGIT-SC64 (Fc fusion)
VHH: EVQLVESGGGLVQPGGSLRLSCAASGFAFSNFGMGWFRQAPGKERELVSAIGWSGASTYYADSVKGRFTISADNSKNTAYLQMNSLKPEDTAVYYCARRGRTIPFDYWGQGTLVTVSS
notes: VHH-Fc
B18: TIGIT-SC46 (Fc fusion)
VHH: EVQLVESGGGLVQPGGSLRLSCAASGRTFSNYVMGWFRQAPGKERELVASISSFGSTYYADSVKGRFTISADNSKNTAYLQMNSLKPEDTAVYYCARSGGFLSDWGQGTLVTVSS
notes: VHH-Fc
B19: TIGIT-SC82 (Fc fusion)
VHH: EVQLVESGGGLVQPGGSLRLSCAASGSMSSNYAMGWFRQAPGKEREFVAAIDWSGGNTYYADSVKGRFTISADNSKNTAYLQMNSLKPEDTAVYYCAKWFYYGSGLYTLDVWGQGTLVTVSS
notes: VHH-Fc
B20: TIGIT-SC83 (Fc fusion)
VHH: B19 VHH with S27R, M28T, S29F, N31D, Y32D, D52S, W53R
notes: VHH-Fc
B21: TIGIT-SC51 (Fc fusion)
VHH: EVQLVESGGGLVQPGGSLRLSCAASGRTEANYAMGWFRQAPGKEREFVAAISWDGGATAYADSVKGRFTISADNSKNTAYLQMNSLKPEDTAVYYCGDYEGHWGQGTLVTVSS
notes: VHH-Fc
B22: TIGIT-SC68 (Fc fusion)
VHH: B21 VHH with R27H, E29F, A30R, N31G, F47A, D54S, G56D, A57N, A59Y
notes: VHH-Fc
B23: TIGIT-SC38 (Fc fusion)
VHH: EVQLVESGGGLVQPGGSLRLSCAASGFTFSEYPMGWFRQAPGKEREFVAVVNWNGDSTYYADSVKGRFTISADNSKNTAYLQMNSLKPEDTAVYYCARGSDWYRYWGQGTLVTVSS
notes: VHH-Fc
B24: TIGIT-SC193 (Fc fusion)
VHH: EVQLVESGGGLVQPGGSLRLSCAASGFTFSDYWMGWFRQAPGKEREFVAAISRSGTLKAYADSVKGRFTISADNSKNTAYLQMNSLKPEDTAVYYCARGSGWPKIHFDYWGQGTLVTVSS
notes: VHH-Fc
B25: TIGIT-SC36 (Fc fusion)
VHH: EVQLVESGGGLVQPGGSLRLSCAASGNTFNFNVMGWFRQAPGKEREAVASIWRSGGNTYYADSVKGRFTISADNSKNTAYLQMNSLKPEDTAVYYCARDLEWRPYYMDVWGQGTLVTVSS
notes: VHH-Fc
B26: TIGIT-SC152 (Fc fusion)
VHH: EVQLVESGGGLVQPGGNLRLSCAASGSTFSKHHAMGWFRQAPGKEREFVAGIIRSGTLKAYADSVKGRFTISADNSKNTAYLQMNSLKPEDTAVYYCTRGRAARHNLWYFDLWGQGTLVTVSS
notes: VHH-Fc
B27: TIGIT-SC67 (Fc fusion)
VHH: EVQLVESGGGLVQPGGSLRLSCAASGFTFDRSWMGWFRQAPGKEREWVSTIYSNGTPAYADSVKGRFTISADNSKNTAYLQMNSLKPEDTAVYYCARRGLPSYSYGMDVWGQGTLVTVSS
notes: VHH-Fc
B28: TIGIT-SC149 (Fc fusion)
VHH: EVQLVESGGGLVQPGGSLRLSCAASGFTLENNMMGWFRQAPGKEREFVAAISRSGTLKAYADSVKGRFTISADNSKNTAYLQMNSLKPEDTAVYYCAKVQGPYCSGGSCYLYTFDLWGQGTLVTVSS
notes: VHH-Fc
B29: TIGIT-SC65 (Fc fusion)
VHH: EVQLVESGGGLVQPGGSLRLSCAASGFTFGNYDMGWFRQAPGKEREFVAAITGSGRSTYYADSVKGRFTISADNSKNTAYLQMNSLKPEDTAVYYCARGRIAASGTKVYWYFDLWGQGTLVTVSS
notes: VHH-Fc

Target: T1, TIGIT
Experiment: SPR, VHH-V5-His; unit inferred

Binder	Kd [nM]
B1	365
B2	465
B3	8580

Target: T2, TIGIT
Experiment: SPR, VHH-V5-His

Binder	Kd [nM]	RU [RU]	koff [s⁻¹]	kon [M⁻¹ s⁻¹]
B4	158	59	0.003	20000
B5	102	145	0.006	60000
B6	186	119	0.004	20000
B7	346	78	0.01	30000
B8	382	301	0.01	30000
B9	473000	25300	0.2	400

Target: T1, TIGIT
Experiment: SPR, VHH-V5-His

Binder	RU [RU]
B1	88
B2	26
B3	464
B10	202
B11	3
B12	270
B13	26100

Target: T3, human TIGIT-Fc
Experiment: CD155 competition ELISA, titration
Description: (§1) TIGIT/CD155 inhibition of VHH-Fcs were assessed using an ELISA assay (Table 10B). Briefly, human TIGIT-Fc was coated on a plate & then incubated with VHH-Fcs and human CD155-biotin. Bound CD155-biotin was detected using a streptavidin-HRP conjugate visualized with TMB. Strong inhibitors from the single point screen were titrated to determine EC50 (Table 10C).

Binder	EC50 [nM]
B14	4.14
B15	1.78
B16	1.53
B17	9.58
B18	1.37
B19	4.08
B20	4.36
B21	3.47
B22	6.52
B23	0.181
B24	4.39
B25	2.08
B26	13.4
B27	1.23
B28	11.9
B29	4.09

Target: T3, human TIGIT-Fc
Experiment: CD155 competition ELISA, single point; further: test concentration or dose not given here
Description: as §1

Binder	OD (450 nm) [OD]
B14	0.206
B15	0.125
B16	0.0807
B17	0.197
B18	0.111
B19	0.25
B20	0.241
B21	0.129
B22	0.607
B23	0.143
B24	0.151
B25	0.144
B26	0.259
B27	0.149
B28	0.263
B29	0.0846
